Experimental data published in patent US20160369006A1.

Target: FcγRIIIA (CD16A) on transduced Jurkat cells (human) (UniProt P08637)
Experiment: cell-based or functional assay
Parameters: EC50, NFAT-luciferase reporter in CD16A Jurkat cells with RMF-pulsed T2 cells (reverse signaling): unit not given beside the values

Chain of FcγRIIIA (CD16A) on transduced Jurkat cells (human) (P08637 17-254): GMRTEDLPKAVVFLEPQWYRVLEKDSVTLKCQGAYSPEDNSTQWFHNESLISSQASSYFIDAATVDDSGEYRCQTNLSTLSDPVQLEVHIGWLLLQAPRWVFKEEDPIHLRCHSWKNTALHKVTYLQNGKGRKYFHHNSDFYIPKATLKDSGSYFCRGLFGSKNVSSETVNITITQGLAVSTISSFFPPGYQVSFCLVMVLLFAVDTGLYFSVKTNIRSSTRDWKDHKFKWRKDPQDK

| EC50, NFAT-luciferase reporter in CD16A Jurkat cells with RMF-pulsed T2 cells (reverse signaling) | fold decrease in EC50 relative to wildtype ESK1, CD16A reporter [fold] | Substance |
| --- | --- | --- |
| > 10000 | – | ESK1 containing D265A/P329A mutations in the Fc domain (ESK1 DAPA) (antibody) |
| 0.17 | 5 | ESKM having 100% reduction in fucosylation (GlymaxX technology) (antibody) |
